According to US20170114347:

Legend:
Test in all cases: cell_activity
[1] = tested on: KLF4 TALE-VP16 (Xanthomonas); conditions: CITED; cited from earlier work
[2] = tested on: IFNb1 TALE-VP16 (Xanthomonas); conditions: CITED; cited from earlier work
[3] = tested on: TALE-activator Ntf3-4 (Xanthomonas); conditions: NTF3 mRNA in 293 cells; p65 version weaker
[4] = tested on: TALE-activator Ntf3-2 (Xanthomonas); conditions: NTF3 mRNA in 293 cells; p65 version weaker
[5] = tested on: IFNa1 TALE-VP16 (Xanthomonas); conditions: CITED; cited from earlier work
[6] = tested on: OSGIN2 TALE-VP64 (Xanthomonas); conditions: CITED; U-2OS; cited from earlier work
[7] = tested on: PUMA TALE-VP16 (Xanthomonas); conditions: CITED; cited from earlier work
[8] = tested on: ZC3H10 TALE-VP64 (Xanthomonas); conditions: CITED; U-2OS; cited from earlier work
[9] = tested on: TALE-activator Ntf3-3 (Xanthomonas); conditions: NTF3 mRNA in 293 cells; p65 version weaker
[10] = tested on: NTF3 TALE-VP16 (Miller 2011) (Xanthomonas); conditions: CITED; HEK293; cited from earlier work
[11] = tested on: TALE-activator Ntf3-5 (Xanthomonas); conditions: NTF3 mRNA in 293 cells; p65 version weaker
[12] = tested on: TALE-activator Ntf3-1 (Xanthomonas); conditions: NTF3 mRNA in 293 cells; weakest about 1000-fold; p65 version weaker
[13] = tested on: SOX2 TALE-VP16 (Xanthomonas); conditions: CITED; cited from earlier work

For “TTCTTACTTATAAC (double strand) [KLF4 site]”, the activity (fold activation) [1] is listed as 2.2.
For “TCTCATATAAATAGGCCAT (double strand) [IFNb1 site]”, the activity (fold activation) [2] is listed as 3.5.
In the case of “TACGCCTCAGACCTGATC (double strand) [Ntf3-4 site]”, the activity (fold activation (approx.)) [3] is reported as over 1000.
“TCCGAACAGCTCCGCGCA (double strand) [Ntf3-2 site]” gave an activity (fold activation (approx.)) [4] of over 1000.
For “TGGAAAGTGGCCCAGAAGCAT (double strand) [IFNa1 site]”, the activity (fold activation) [5] is given as 3.1.
For “TCCTCCCCACCTTTAATTTT (double strand) [OSGIN2 site]”, the activity (fold activation) [6] is listed as 4.8.
In the case of “TACTTGGAGGCAGTCAAGT (double strand) [PUMA site]”, the activity (fold activation) [7] is listed as 1.5.
For “TACCATATCCCATCCAACTC (double strand) [ZC3H10 site]”, the activity (fold activation) [8] is listed as 1.3.
For “TTCCCCTGCTGGGTAGTG (double strand) [Ntf3-3 site]”, the activity (fold activation (approx.)) [9] was over 1000.
In the case of “TGGAGCCATCTGGCCGGGT (double strand) [NTF3 site]”, the activity (fold activation) [10] is listed as 30.
With “TCCCTCAATCTGGGAAAG (double strand) [Ntf3-5 site]” the activity (fold activation (approx.)) [11] was over 1000.
Sequence “TTCTGTTCACGGGACTCA (double strand) [Ntf3-1 site]” has an activity (fold activation (approx.)) [12] of over 1000.
In the case of “TTTATTCCCTGACA (double strand) [SOX2 site]”, the activity (fold activation) [13] is given as 5.5.
